The target of assay [1] is T1, human CD20 antigen (human, UniProt P11836 1-297).
T1 sequence (looked up): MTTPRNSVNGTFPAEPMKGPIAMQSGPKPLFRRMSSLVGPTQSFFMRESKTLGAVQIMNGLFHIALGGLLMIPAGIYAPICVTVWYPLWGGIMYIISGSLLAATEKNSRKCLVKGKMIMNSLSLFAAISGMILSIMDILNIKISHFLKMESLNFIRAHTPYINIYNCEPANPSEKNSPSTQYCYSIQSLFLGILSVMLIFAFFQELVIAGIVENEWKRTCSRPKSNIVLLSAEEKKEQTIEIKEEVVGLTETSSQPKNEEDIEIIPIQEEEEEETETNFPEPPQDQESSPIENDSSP
In words: cell-based or functional assay.

For assay [2], the target named is T1, human CD20 antigen. Description: Scatchard analysis on Raji cells (Example 3), average over the clones of the construct. As for the experimental part:
(§1) The reaction solution was 1% BSA-PBS solution with a cell number of 5×10⁶ cells and was injected into a 1.5 ml tube to a final volume of 100 μl. Three samples for each test antibody were prepared and four tubes to which antibody was not added were prepared as samples for background calculations.
(§2) After the detecting step, an image was digitized using image analysis software Image Quant (Amersham Bioscience) and analyzed using Excel (Microsoft). Average values for the same test antibodies were calculated and the values for background calculation samples (when only reacting a cell with a FITC-labeled secondary antibody) were subtracted from the test antibody values. The background values derived for the FITC-labeled secondary antibody binding non-specifically to cells, the PBS solution and the plate are omitted. At the same time, a standard curve was prepared by measuring the amount of fluorescence of only FITC-labeled secondary antibodies at amounts of 0, 12.5, 25, 50, 75, 100, 125, and 150 ng per 100 μl. In this manner, the number of moles of secondary antibody binding to cells was calculated. Assuming that each primary antibody and the FITC-labeled secondary antibody react at a ratio of […], the amount of cell-bound primary antibody was calculated. Primary antibody in suspension was calculated by subtracting the bound amount from the added amount. Scatchard analysis was performed using these values in order to calculate a dissociation constant Kd.

The target in assay [3] is T1, human CD20 antigen. In words: Scatchard analysis on Raji cells, FITC anti human Fc secondary (Example 3). As for the experimental part: as §1, §2

“And” between values parts separate entries of the source, which are not always exact repeats. Equal entries are not always repeated.

Usually Kd stands for the constant that tells how readily two partners part at equilibrium. A lower Kd goes with a tighter complex.

B1: chimerized 1K1791 antibody (c1791) (antibody, V domains shown)
VH: QIQLVQSGPELKKPGETVKISCKASGYTFTNFGVNWVKQAPGKGLKWMGWINTYTGEPSYADDFKGRFAFSLEASANTAYLQINNLKNDDMSTYFCTRRTNYYGTSYYYAMDYWGQGTSVTVSS
VL: STVMTQTPKFLLVSAGDRVTITCKASQSVSNDVAWYQQKPGQSPKVLIYFASNRYTGVPDRFTGSGYGTDFTFTINTVQAEDLAVYFCQQDYSSPLTFGAGTKLELK
Take B1: in the assay with human CD20 antigen [1], the “CDC (10 ug/ml), RAJI” value is 99 relative, c2B8 = 100; the “CDC (10 ug/ml), RC-K8” value is 100 relative, c2B8 = 100; the “CDC (10 ug/ml), SUDHL4” value is 119 relative, c2B8 = 100; the “CDC (10 ug/ml), WIL2NS” value was 529 relative, c2B8 = 100.

B2: humanized 1K1791 antibody as (AbbL x SdrH) (antibody, V domains shown)
VH: QIQLVQSGSELKKPGASVKVSCKASGYTFTNFGVNWVRQAPGKGLKWMGWINTYTGEPSYAQGFTGRFAFSLDASVSTAYLQISSLKAEDTATYFCTRRTNYYGTSYYYAMDYWGQGTTVTVSS
VL: STVMTQSPDSLAVSLGERATINCKSSQSVSNDVAWYQQKPGQSPKVLIYFASNRYSGVPDRFSGSGYGTDFTLTISSLQAEDVAVYFCQQDYSSPLTFGAGTKLEIK
notes: Kappa, gamma 1 construct; also called hz1791 as; As001
In the case of B2, the Kd in the assay with human CD20 antigen [2] was 11.7 nM; with human CD20 antigen [3], 11.9 nM and 11.5 nM.

B3: humanized 1K1791 antibody vv (VenL x VenH) (antibody, V domains shown)
VH: QIQLVQSGPELKKPGASVKISCKASGYTFTNFGVNWVKQAPGKGLKWMGWINTYTGEPSYADDFKGRFAFSLDASVSTAYLQISSLKAEDTSTYFCTRRTNYYGTSYYYAMDYWGQGTTVTVSS
VL: STVMTQSPDSLAVSLGERVTINCKASQSVSNDVAWYQQKPGQSPKVLIYFASNRYTGVPDRFSGSGYGTDFTFTISSVQAEDVAVYFCQQDYSSPLTFGAGTKLELK
notes: Kappa, gamma 1 construct; also called hz1791 vv; Vv018
On to B3, for which the equilibrium dissociation constant (Kd) with human CD20 antigen [2] was 7.07 nM; with human CD20 antigen [3], 7.14 nM and 7.01 nM.

B4: humanized 1K1791 antibody fa (FraL x AbbH) (antibody, V domains shown)
VH: QIQLVQSGSELKKPGASVKVSCKASGYTFTNFGVNWVRQAPGKGLEWMGWINTYTGEPSYAQGFTGRFVFSLDASVSTAYLQISSLKAEDTATYFCTRRTNYYGTSYYYAMDYWGQGTTVTVSS
VL: STVMTQSPSFLSASVGDRVTITCKASQSVSNDVAWYQQKPGQSPKVLIYFASNRYTGVPDRFSGSGYGTDFTLTISSLQAEDVAVYFCQQDYSSPLTFGAGTKLEIK
notes: Kappa, gamma 1 construct; also called hz1791 fa; Fa007
B4: the Kd is 10.1 nM in the assay with human CD20 antigen [2]; 11.3 nM and 8.83 nM in the assay with human CD20 antigen [3].

B5: humanized 1K1791 antibody fs (FraL x SdrH) (antibody, V domains shown)
VH: QIQLVQSGSELKKPGASVKVSCKASGYTFTNFGVNWVRQAPGKGLKWMGWINTYTGEPSYAQGFTGRFAFSLDASVSTAYLQISSLKAEDTATYFCTRRTNYYGTSYYYAMDYWGQGTTVTVSS
VL: STVMTQSPSFLSASVGDRVTITCKASQSVSNDVAWYQQKPGQSPKVLIYFASNRYTGVPDRFSGSGYGTDFTLTISSLQAEDVAVYFCQQDYSSPLTFGAGTKLEIK
notes: Kappa, gamma 1 construct; also called hz1791 fs; Fs007
For the molecule B5, the dissociation constant (Kd) with human CD20 antigen [2] was 8.71 nM; with human CD20 antigen [3], 6.33 nM and 11.1 nM.

B6: humanized 1K1791 antibody vf (VenL x FraH) (antibody, V domains shown)
VH: QIQLVQSGSELKKPGASVKVSCKASGYTFTNFGVNWVKQAPGKGLKWMGWINTYTGEPSYADDFKGRFAFSLDASASTAYLQISSLKAEDMATYFCTRRTNYYGTSYYYAMDYWGQGTTVTVSS
VL: STVMTQSPDSLAVSLGERVTINCKASQSVSNDVAWYQQKPGQSPKVLIYFASNRYTGVPDRFSGSGYGTDFTFTISSVQAEDVAVYFCQQDYSSPLTFGAGTKLELK
notes: Kappa, gamma 1 construct; also called hz1791 vf; Vf029
In the case of B6, the Kd is 7.78 nM with human CD20 antigen [2]; 7.78 nM and 7.79 nM with human CD20 antigen [3].

B7: humanized 1K1791 antibody sv (SdrL x VenH) (antibody, V domains shown)
VH: QIQLVQSGPELKKPGASVKISCKASGYTFTNFGVNWVKQAPGKGLKWMGWINTYTGEPSYADDFKGRFAFSLDASVSTAYLQISSLKAEDTSTYFCTRRTNYYGTSYYYAMDYWGQGTTVTVSS
VL: STVMTQSPDSLAVSLGERATINCKSSQSNSNDVAWYQQKPGQSPKVLIYFASNRYSGVPDRFSGSGYGTDFTLTISSLQAEDVAVYFCQQDYSSPLTFGAGTKLEIK
notes: Kappa, gamma 1 construct; also called hz1791 sv; Sv015
Turning to B7, the Kd was 12.6 nM with human CD20 antigen [2]; 14.3 nM and 10.8 nM with human CD20 antigen [3].

B8: humanized 1K1791 antibody aa (AbbL x AbbH) (antibody, V domains shown)
VH: QIQLVQSGSELKKPGASVKVSCKASGYTFTNFGVNWVRQAPGKGLEWMGWINTYTGEPSYAQGFTGRFVFSLDASVSTAYLQISSLKAEDTATYFCTRRTNYYGTSYYYAMDYWGQGTTVTVSS
VL: STVMTQSPDSLAVSLGERATINCKSSQSVSNDVAWYQQKPGQSPKVLIYFASNRYSGVPDRFSGSGYGTDFTLTISSLQAEDVAVYFCQQDYSSPLTFGAGTKLEIK
notes: Whole humanized antibody from CHO cells; construct name ends kg1 (kappa, gamma 1); The two clones are producer clones of one construct; also called hz1791 aa; Aa008
On to B8, for which the Kd in the assay with human CD20 antigen [2] was 10.8 nM; in the assay with human CD20 antigen [3] it was 11.7 nM and 9.96 nM.

B9: humanized 1K1791 antibody vs (VenL x SdrH) (antibody, V domains shown)
VH: QIQLVQSGSELKKPGASVKVSCKASGYTFTNFGVNWVRQAPGKGLKWMGWINTYTGEPSYAQGFTGRFAFSLDASVSTAYLQISSLKAEDTATYFCTRRTNYYGTSYYYAMDYWGQGTTVTVSS
VL: STVMTQSPDSLAVSLGERVTINCKASQSVSNDVAWYQQKPGQSPKVLIYFASNRYTGVPDRFSGSGYGTDFTFTISSVQAEDVAVYFCQQDYSSPLTFGAGTKLELK
notes: Kappa, gamma 1 construct; also called hz1791 vs; Vs006
For B9, the Kd is 10.3 nM with human CD20 antigen [2]; 8.8 nM and 11.9 nM with human CD20 antigen [3].

B10: humanized 1K1791 antibody sa (SdrL x AbbH) (antibody, V domains shown)
VH: QIQLVQSGSELKKPGASVKVSCKASGYTFTNFGVNWVRQAPGKGLEWMGWINTYTGEPSYAQGFTGRFVFSLDASVSTAYLQISSLKAEDTATYFCTRRTNYYGTSYYYAMDYWGQGTTVTVSS
VL: STVMTQSPDSLAVSLGERATINCKSSQSNSNDVAWYQQKPGQSPKVLIYFASNRYSGVPDRFSGSGYGTDFTLTISSLQAEDVAVYFCQQDYSSPLTFGAGTKLEIK
notes: Kappa, gamma 1 construct; also called hz1791 sa; Sa023
With B10, the Kd in the assay with human CD20 antigen [2] and in the assay with human CD20 antigen [3] was 14.7 nM throughout.

B11: humanized 1K1791 antibody va (VenL x AbbH) (antibody, V domains shown)
VH: QIQLVQSGSELKKPGASVKVSCKASGYTFTNFGVNWVRQAPGKGLEWMGWINTYTGEPSYAQGFTGRFVFSLDASVSTAYLQISSLKAEDTATYFCTRRTNYYGTSYYYAMDYWGQGTTVTVSS
VL: STVMTQSPDSLAVSLGERVTINCKASQSVSNDVAWYQQKPGQSPKVLIYFASNRYTGVPDRFSGSGYGTDFTFTISSVQAEDVAVYFCQQDYSSPLTFGAGTKLELK
notes: Kappa, gamma 1 construct; also called hz1791 va; Va016
Turning to B11, the Kd with human CD20 antigen [2] was 10.3 nM; in the assay with human CD20 antigen [3], 13.1 nM and 7.5 nM.

B12: humanized 1K1791 antibody av (AbbL x VenH) (antibody, V domains shown)
VH: QIQLVQSGPELKKPGASVKISCKASGYTFTNFGVNWVKQAPGKGLKWMGWINTYTGEPSYADDFKGRFAFSLDASVSTAYLQISSLKAEDTSTYFCTRRTNYYGTSYYYAMDYWGQGTTVTVSS
VL: STVMTQSPDSLAVSLGERATINCKSSQSVSNDVAWYQQKPGQSPKVLIYFASNRYSGVPDRFSGSGYGTDFTLTISSLQAEDVAVYFCQQDYSSPLTFGAGTKLEIK
notes: Kappa, gamma 1 construct; also called hz1791 av; Av004
B12: the Kd in the assay with human CD20 antigen [2] was 9.94 nM; with human CD20 antigen [3] it was 10.7 nM and 9.17 nM.

B13: humanized 1K1791 antibody af (AbbL x FraH) (antibody, V domains shown)
VH: QIQLVQSGSELKKPGASVKVSCKASGYTFTNFGVNWVKQAPGKGLKWMGWINTYTGEPSYADDFKGRFAFSLDASASTAYLQISSLKAEDMATYFCTRRTNYYGTSYYYAMDYWGQGTTVTVSS
VL: STVMTQSPDSLAVSLGERATINCKSSQSVSNDVAWYQQKPGQSPKVLIYFASNRYSGVPDRFSGSGYGTDFTLTISSLQAEDVAVYFCQQDYSSPLTFGAGTKLEIK
notes: Kappa, gamma 1 construct; also called hz1791 af; Af021
B13: the Kd with human CD20 antigen [2] was 7.76 nM; in the assay with human CD20 antigen [3], 6.84 nM and 8.67 nM.

The values above are taken from US20090203886A1 (OSAKA UNIVERSITY, published 2009).
